# The supplement of paper PMC12764529
# ± gives the half width of the 95% confidence interval.
# Experiment: folding stability dG unfold from trypsin proteolysis; higher = more stable
# In short: (§1)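 Only designs with AlphaFold2 dimer inter-PAE above 15 were retained; each was a mini-protein under 80 residues with no cysteine, in a PA-tagged cDNA display construct. After digestion with trypsin and chymotrypsin and sequencing, K50 was inferred by Bayesian fitting of counts, and unfolding free energy was derived per protease or combined against a sequence-predicted unfolded-state K50 and a shared folded-state K50.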
row,Sequence,folding stability dG unfold
1,SAGGSAGGSKKKYIIKVKIYNENGELVEEKEIEAESEEEALEALAKNPNISKEEITKIEVYELSAGGSAGGS [r12_182_TrROS_Hall],2.24 ± 0.041 kcal/mol
2,SAGGSAGGSMKPVVDSKADPTSGPEKTLTLTLGDETVTHTVSSSESLTIPLPPNSTVSFEPLGSAGGSAGGS [r12_373_JUSTAS],0.791 ± 0.021 kcal/mol
3,SAGGSKTLIIKIEKIEEFYPPFNNDKIKIPVSVYDPETGEKVLSNEEVAKILEKLFPGIKIGWEEGSAGGSA [r2_27_TrMRF],1.06 ± 0.032 kcal/mol
4,SMPEVETVTLTLTLVDEETGEEVTIEITATRVDGYLVLTMKVEVTVNGKKYTIEMTIVVKPGEEITLTLESA [r9_1015_TrROS_Hall],3.99 ± 0.33 kcal/mol
5,SAGGSAGGSAGKKIIIKVKPNMTPEEIAKKLAEELGVEVEIKKVKKLKNGELYIEIEIKPSAGGSAGGSAGG [r17_222_TrROS_Hall],3.09 ± 0.17 kcal/mol
6,SAGGSAGGSAKTLTLTTPNGDKVEVKLYELPDDFVLAEIKVLATGEKFYALLTKDGTVYLASAGGSAGGSAG [r3_15_TrMRF],2.47 ± 0.084 kcal/mol
7,SAGGSAGGSAEKLLIVVEVDTPEQAEALAKALAALLPPGAKITVKPVEVDGKLYLVAEVELSAGGSAGGSAG [r3_92_TrROS_Hall],3.6 ± 0.16 kcal/mol
8,SAGPNFKIEIVPNPNGMEPIATIRPPGRTIVIYRNSNGGYHVQRFDPNNGKPVKQFNMPAEEIIKEILSAGG [r19_188_TrROS],0.348 ± 0.1 kcal/mol
9,SAGGMTVPIFVPVDSPEQVEEILEELATPDVKEIVPATLPPLPPPGDKMVVPINITIFPGTGKAVIDASAGG [r13_174_TrMRF],-1.08 ± 0.12 kcal/mol
10,PAVPKEYTVTLPNATAKVTLEEYEDFVLATAEVTFPDGAKATVTVTLEPTPDGVKRTVTLNIPPGFGAKLGS [r1_153_TrMRF],1.17 ± 0.013 kcal/mol
11,SAGGMVEELDAKDADKIIVGADPDEEVFVLVEVYDDGELLEVVELEPGEEIEIPKDYKVKIVTVPKDLSAGG [r13_978_TrMRF],0.119 ± 0.081 kcal/mol
12,SAGGSAGGSAGGKFKPGQTIKIKLKVKVKVNGKEYEFEKELEIKIKPKVTMSEEELKKKSAGGSAGGSAGGS [r10_175_TrROS_Hall],0.169 ± 0.16 kcal/mol
13,SAGASVSRPVSADEEFSVTVPPEPVTLEVTVYRPDGSVLSSRTIPVGPNTTVTLNVPDPDWSVSFSPVASAG [r5_797_JUSTAS],-0.0205 ± 0.2 kcal/mol
14,SDRFTATVEYPDTGKTETIELDPSHLSITVEFTGSATFRVTISYDVNGDTFTVEAEFTAPLAPVPPEAFLSA [r9_1067_TrMRF],2.25 ± 0.15 kcal/mol
15,SAGGSAGGSAGMKITVTITTTTTVSVEPPESSAAVGPVVYRQTLTLNLSPEEAAALLKKSSAGGSAGGSAGG [r17_283_JUSTAS],1.17 ± 0.035 kcal/mol
16,SAGGAVELRIVVRRTRPDPLTGRPVEEELTLTVPVDLDPERGVSAAEVARALAAALPDEVREVRAEPGSAGG [r13_335_TrMRF],0.51 ± 0.17 kcal/mol

row,Sequence,folding stability dG unfold
1,SAGKEEAEKNKIAVLHLELYHPDGTKVSITIAFHPDKPEAVIEELTKLGYPLKDLIKNHPDLKILKIEPSAG [r5_430_TrMRF],1.71 ± 0.092 kcal/mol
2,SAGGSAGGSAGGMMKTTITITLPPNSSKEEAEKIKEEGLPAEEIVVEKNPDGTRVVTILESAGGSAGGSAGG [r11_97_JUSTAS],-0.915 ± 0.31 kcal/mol
3,SAGGSAGGSMEIIGSFTFPNPNGMNIKVNVYRNPEEKKWWAKVEIWDGGKPKTHTMPLDDFLKSAGGSAGGS [r12_1063_TrROS],1.23 ± 0.042 kcal/mol
4,MTITVRFTFQTEEEAEKAAEEVKRKLAEELGLSEEVLKKIPVEVKRTETGSENGEPVYEVTVTFKLPEELLS [r1_81_JUSTAS],4.17 ± 0.14 kcal/mol
5,SAGGSAGGTAEELARKLEEALREAGYEVEKIEVVRVERKGDKVTIEVRVTLPDGRKLELRIELDSAGGSAGG [r6_839_TrROS_Hall],4.09 ± 0.3 kcal/mol
6,SPVVLPLTLGDRPILARLYPGEGVLEVRDPDGRLVGRATVTPNRINLVFRALDDDTTLVFELPVLPPDDPSA [r9_963_TrMRF],1.66 ± 0.07 kcal/mol
7,SAGGSAGGSAGGSMVITMTEEEIKALLPPGAKVKVEVVEDEETKEKFVRVEVYPAKEEESAGGSAGGSAGGS [r4_119_TrROS_Hall],0.0616 ± 0.059 kcal/mol
8,SAGATFKPGQTITVTVTVTVTVTNADGSTTTVTATVTVTLTVEPAPPLTFKTAEEAEAARKAGLSPEELSAG [r5_624_TrROS_Hall],1.35 ± 0.07 kcal/mol
9,SVPIALPGVPPGFSLEEVAALITEKIKALGYTLKDIKVTPHPDNTVTITITVEKGEKTVKKVTTEINPPVSA [r9_953_JUSTAS],1.56 ± 0.15 kcal/mol
10,SAGGSAGGWYVRITTNNGNQISIHLEELGLPEESFKEMTEEDLAEYLSKLFPGRPIKIEPVPLPSAGGSAGG [r6_165_TrROS],3.07 ± 0.14 kcal/mol
11,SAGGKKKVTIEIVYDPEEDYVLIRIRIKDPNGNEREITIRMSRDEIKKLLEELKGKITSIEVRRLPPSAGGS [r16_298_TrROS_Hall],3.02 ± 0.1 kcal/mol
12,SAGGGEYKVEVVTFPDGSKVVLVTLPNGDKVALPVPVTRTVPVLDKTGPLKKPGPVEVAALVLVSSNGSAGG [r13_236_TrMRF],0.636 ± 0.035 kcal/mol
13,SAGGSAGGSAGSTILIKNEDGSLLLVTVSDGSITIERLPPAPPPKTYEKDPETKEWREVTSAGGSAGGSAGG [r11_590_TrROS_Hall],1.06 ± 0.021 kcal/mol
14,SAGGSAGGSHEIIIRVDSPEDAIEQAKSILRDHGIPEGFEPVPIEVLERDPNNGYYYVQIEVKSAGGSAGGS [r12_999_TrROS],0.601 ± 0.026 kcal/mol
15,SAGKKTITVEIVVENLTEEEIEEKIREKLKEAGLKVEVVKVEIVKVEEVDGKKYLVVKVEIKIEPEEESAGG [r19_325_TrROS_Hall],3.5 ± 0.18 kcal/mol

# Experiment: folding stability dG unfold from chymotrypsin proteolysis; higher = more stable
# In short: as §1
row,Sequence,folding stability dG unfold
1,SAGGSAGGSKKKYIIKVKIYNENGELVEEKEIEAESEEEALEALAKNPNISKEEITKIEVYELSAGGSAGGS [r12_182_TrROS_Hall],2.1 ± 0.054 kcal/mol
2,SAGGSAGGSMKPVVDSKADPTSGPEKTLTLTLGDETVTHTVSSSESLTIPLPPNSTVSFEPLGSAGGSAGGS [r12_373_JUSTAS],1.11 ± 0.02 kcal/mol
3,SAGGSKTLIIKIEKIEEFYPPFNNDKIKIPVSVYDPETGEKVLSNEEVAKILEKLFPGIKIGWEEGSAGGSA [r2_27_TrMRF],0.719 ± 0.036 kcal/mol
4,SMPEVETVTLTLTLVDEETGEEVTIEITATRVDGYLVLTMKVEVTVNGKKYTIEMTIVVKPGEEITLTLESA [r9_1015_TrROS_Hall],5.85 ± 0.37 kcal/mol
5,SAGGSAGGSAGKKIIIKVKPNMTPEEIAKKLAEELGVEVEIKKVKKLKNGELYIEIEIKPSAGGSAGGSAGG [r17_222_TrROS_Hall],2.48 ± 0.19 kcal/mol
6,SAGGSAGGSAKTLTLTTPNGDKVEVKLYELPDDFVLAEIKVLATGEKFYALLTKDGTVYLASAGGSAGGSAG [r3_15_TrMRF],3.49 ± 0.15 kcal/mol
7,SAGGSAGGSAEKLLIVVEVDTPEQAEALAKALAALLPPGAKITVKPVEVDGKLYLVAEVELSAGGSAGGSAG [r3_92_TrROS_Hall],3.84 ± 0.21 kcal/mol
8,SAGPNFKIEIVPNPNGMEPIATIRPPGRTIVIYRNSNGGYHVQRFDPNNGKPVKQFNMPAEEIIKEILSAGG [r19_188_TrROS],0.655 ± 0.34 kcal/mol
9,SAGGMTVPIFVPVDSPEQVEEILEELATPDVKEIVPATLPPLPPPGDKMVVPINITIFPGTGKAVIDASAGG [r13_174_TrMRF],0.991 ± 0.014 kcal/mol
10,PAVPKEYTVTLPNATAKVTLEEYEDFVLATAEVTFPDGAKATVTVTLEPTPDGVKRTVTLNIPPGFGAKLGS [r1_153_TrMRF],1.9 ± 0.03 kcal/mol
11,SAGGMVEELDAKDADKIIVGADPDEEVFVLVEVYDDGELLEVVELEPGEEIEIPKDYKVKIVTVPKDLSAGG [r13_978_TrMRF],-0.0827 ± 0.63 kcal/mol
12,SAGGSAGGSAGGKFKPGQTIKIKLKVKVKVNGKEYEFEKELEIKIKPKVTMSEEELKKKSAGGSAGGSAGGS [r10_175_TrROS_Hall],2.12 ± 0.09 kcal/mol
13,SAGASVSRPVSADEEFSVTVPPEPVTLEVTVYRPDGSVLSSRTIPVGPNTTVTLNVPDPDWSVSFSPVASAG [r5_797_JUSTAS],0.082 ± 0.18 kcal/mol
14,SDRFTATVEYPDTGKTETIELDPSHLSITVEFTGSATFRVTISYDVNGDTFTVEAEFTAPLAPVPPEAFLSA [r9_1067_TrMRF],2.67 ± 0.028 kcal/mol
15,SAGGSAGGSAGMKITVTITTTTTVSVEPPESSAAVGPVVYRQTLTLNLSPEEAAALLKKSSAGGSAGGSAGG [r17_283_JUSTAS],1.16 ± 0.14 kcal/mol
